Assay: soluble on expression in E. coli; label from the status in PepcDB or PDB records

Sequence	soluble on expression in E. coli
MFNKAIVIGGSMAGKFAAKALSTSFKEVIIIEASERWDGKSSRKRVPQSNHPHVLLKGGENAIEELFPNITDELIEAGSIVNNFTRDLKWHQFGLWKQPFIGEVHMIQQSRPLLEWNIQKRIHQISNITIKYETLVKGLLVDEKLNKVCGVKVKYLETDAQEEVHADLVVDASGFGSKSIEWLREYEIEVQEEKVRINLFYATKMFKLKENEELDCCNMLMSPSFPDNPYGVLIQTIEDNRYFVTFSGYANEKAPQTDDEFYDFAENLSISNVTDFLNKAVAISDIKTYKIPYQVRRRFDLTTNMPEGLLVVGDAHCRFDPVFGQGVSVAAMEARQLQLLLQGRKQLDKTFTQQFYKKAATIIETPWEMTTTEISRHPQLKRELTIKQKFQLWYTKQIYQLSATDSDVYIRLVKVMNLIRSPFHLFHPKVLLAVLLKRKKLEHHHHHH	not soluble
MSLETMNNKYKIMQLSDLHFGQDLGRCDDTNTSSGEHVDEFKCSSDLKTLKFIEKSIQEENPDLIVITGDLIDIHRSIDYKSIMLKSLQPILAHKIKFIYTFGDEIKDQLTKISIIQFLSTLPNCLNTVPQEVIEGITNYNFQIKQKSSTPSSSSSISVTVLDSEDHLIDDSQMTYLYRINNELLNDYKLLFFHYPLPQFRPKGKFKIVGSYNEKHELDRKTKLKFHDDIISCGYNVISVGHEHENDACLLSSSSSSSNSDKSIWLCYNSITGDSGITKLDKQYVRKMRLFEIDFEKNRILSWKRKEIDNQPFDYQLIYEKPQKEGHHHHHH	soluble
MSLTEDVTSQTSESLARHSVLAEDLSQDGLTSLGAPGARVLLVWDAPNLDMGLGSILGRRPTALERPRFDALGRWLLARTAEIVAGRPGISTEPEATVFTNIAPGSAEVVRPWVDALRNVGFAVFAKPKVDEDSDVDRDMLAHIDERYREGLAALVVASADGQAFRQPLEAVARSGTPVQVLGFREHASWALASDTLEFVDLEDIAGVFREPLPRIGLDSLPEQGAWLQPFRPLSSLLTSRV	soluble
TISQRPYRDRVIHLLALKAYKKPELLARLQKDGVNQKDKNSLGAILQQVANLNSKDLSYTLKDYVFKELQRDWPGYSEIDRRSLESVLSRKLN	soluble
MNVANNNCGQMLSDSSESSEPPRAQAGAVFGKKDKGKKADTKKKNTATEGSKRVKKEKKKDDGEAAKGDPTNKTNMTPAPPQTHPIVEQWVLRALDVGVDKLREEFRGLAKYTRPDMTQVMFNANQSPDIAITKNRYQDVPCQDQSAVKLDQPSPCNYIHANYVGCPMIPEKRFICAQGPLDQTIDEFWWMVIQNKVEQIVMLCKTVEMGKLKCAQYWPAAQGEKLTLKSGCVVENVSGSKPMERDPEIQITMLNLTYSGGQTMSVRHLQWTEWPDRGVPPCKLTSLELLSAIRGSKVPIVVHCSAGIGRTGTIVAIEYILEKIAENKPCPPMPELVKALRDQRAFSIQNDVQYLFIHRVMLNYFLEKYKEKYAALLTAENVAKYDKFIKDYNAAVGQ	not soluble
MTIQQSVTHQLLIPITFEGKEHTTITLQRPKTKDLQAIDKKEGVEQTIAMIARLSGWPHEAISELDINDLSSIGEILESFIKRRDTSTGKPPQN	soluble
MEPHLKIDVSSASGSTTTGATASTSEAPQDSQAQQTMPPPSSDWSNQFNSPEAEDMGPFVEQLLPFVRASAYNWFHLQAAKRRHFKEFDKKMCASEENAKLAELQNDRDELKVKWASRLLGKIKKDIQNDDKEAFISAINGSEPNKCIISVADQKGKMRRIDCLRQADKVWRLDLVTIILFKGIPLESTDGERLERSEACVHPLCINPFHMAISVRGLDVFMANYLKDVDTKITLTYPRNDELSDTVMVKQEPGEQTIVAPHAVLGTSSTHTRVWETNSERNAETIIITYDPQKACHTYFGGRATLAQQSLSAGNTYMVNKTAVDNNFFNAKRSVLCLPPPPIQNCFPYPIAGTSDSQQMDMSEDSNDGPSEKRSRDISSHDSPNSSTNDEVRRIVESGTEKLVLGSSIWAAPGQFSRTQQNQGAPGTSRQVRPLPDFQSQDSARSPGAFRSTAKPVCRMTVNTGNHGDVGVVVVDERNREHVIHAQHIVNALSSLRTTPSMRESPVGRKRMHPHTSNSFEFLNCNQEMNKNEGALGSDISPTHTAVSNLISRESSGYMASPTKFTTARGDTTSFSKIFQKIEEKHLQHNQPSTSYCNSQIQPPILSSKPVDSSVKLIAPVAVKPIMSGCNSIIPSPITTPRITPSFRMLEDDSLINVLGQLAHSNDGTTLNDSFIQHLIDTNSRSPLLSSGNAFSALSMGARIEFVGCSNGIGRSSKYCTGRPANSKCNVTSSSRAANQAPVSNTPQDPNAPKLPTDFSHALRNEKK	not soluble
MGSDKIHHHHHHMPNSYTHYHDENVTDPHLRATGAISVLPLGAHEQHGPHLPFETDTLIAAGIVSRLAAVLPAHLPVSFLPVEPVGYSIEHMDVPGTKTLCYDEAIERWLGIAEAEYEKGVRKFVMLNAHGGNSPLMTIVATEARARFGMLAVATSWTRFGVPADIVKPQDKAVDIHGGDIETSVMLALHPERVVMEKAANFPSRQSDFSQRFSHLRAYGPHAFGWLMSDLNPDGVAGNAAAASAGKGERLISHAVNGLLELLEDVHAFDITLFHNKI	not soluble
MAKKTSSKGKLPPGPRPLPLLGNLLQMDRRGLLKSFLRFREKYGDVFTVHLGPRPVVMLCGVEAIREALVDKAEAFSGRGKIAMVDPFFRGYGVIFANGNRWKVLRRFSVTTMRDFGMGKRSVEERIQEEAQCLIEELRKSKGALMDPTFLFQSITANIICSIVFGKRFHYQDQEFLKMLNLFYQTFSLISSVFGQLFELFSGFLKHFPGAHRQVYKNLQEINAYIGHSVEKHRETLDPSAPRDLIDTYLLHMEKEKSNAHSEFSHQNLNLNTLSLFFAGTETTSTTLRYGFLLMLKYPHVAERVYREIEQVIGPHRPPELHDRAKMPYTEAVIYEIQRFSDLLPMGVPHIVTQHTSFRGYIIPKDTEVFLILSTALHDPHYFEKPDAFNPDHFLDANGALKKTEAFIPFSLGKRICLGEGIARAELFLFFTTILQNFSMASPVAPEDIDLTPQECGVGKIPPTYQIRFLPRHHHH	soluble
MHHHHHHANASETNVGPMAPRVCVVGSVNMDLTFVVDALPRPGETVLAASLTRTPGGKGANQAVAAARAGAQVQFSGAFGDDPAAAQLRAHLRANAVGLDRTVTVPGPSGTAIIVVDASAENTVLVAPGANAHLTPVPSAVANCDVLLTQLEIPVATALAAARAAQSADAVVMVNASPAGQDRSSLQDLAAIADVVIANEHEANDWPSPPTHFVITLGVRGARYVGADGVFEVPAPTVTPVDTAGAGDVFAGVLAANWPRNPGSPAERLRALRRACAAGALATLVSGVGDCAPAAAAIDAALRANRHNGS	soluble
AKNECHPERTDGCQHFCLPGQESYTCSCAQGYRLGEDHKQCVPHDQCACGVLTSEKRAPDLQDLPWQVKLTNSEGKDFCGGVIIRENFVLTTAKCSLLHRNITVKTYFNRTSQDPLMIKITHVHVHMRYDADAGENDLSLLELEWPIQCPGAGLPVCTPEKDFAEHLLIPRTRGLLSGWARNGTDLGNSLTTRPVTLVEGEECGQVLNVTVTTRTYCERSSVAAMHWMDGSVVTREHRGSWFLTGVLGSQPVGGQAHMVLVTKVSRYSLWFKQIMNAHHHHHH	soluble
MGGSHHHHHHGMASALKAHMVRQHSRRQDLLPQLEAPSSLTPSSELSSPGQSELTNMDLAALFSDTPANASGSAGGSDEALNSGILTIDVTSVSSSLGGNLPANNSSLGPMEPLVLVAHSDIPPSLDSPLVLGTAATVLQQGSFSVDDVQTVSAGALGCLVALPMKNLSDDPLALTSNSNLAAHITTPTSSSTPRENASVPELLAPIKVEPDSPSRPGAVGQQEGSHGLPQSTLPSPAEQHGAQDTELSAGTGNFYLESGGSARTDYRAIQLAKEKKQRGAGSNAGASQSTQRKIKEGKMSPPHFHASQNSWLCGSLVVPSGGRPGPAPAAGVQCGAQGVQVQLVQDDPSGEGVLPSARGPATFLPFLTVDLPVYVLQEVLPSSGGPAGPEATQFPGSTINLQDLQ	not soluble
MRGSHHHHHHGSACCASRDDWRCARSMHEFSAKDIDGHMVNLDKYRGFVCIVTNVASQCGKTEVNYTQLVDLHARYAECGLRILAFPCNQFGKQEPGSNEEIKEFAAGYNVKFDMFSKICVNGDDAHPLWKWMKIQPKGKGILGNAIKWNFTKFLIDKNGCVVKRYGPMEEPLVIEKDLPHYF	soluble
MSDESANPSCISHLSIGTNDFPRARAFYDAVMAALGCKVILEYPGAVAYGKLYPEFWVQAPIDGRPASVGNGSHVGFFADSKAQVDAFHAAALAAGARDEGAPGPRPLYGEPYYGCFIRDLDGHKVEASYWDMSQGFDAHDHAH	not soluble
GPGSMPALKPLLVFGLRGTLVERIHVRHVPEGMPAADFTVGLVKVWLRPHMVEVLNELQEHCRLAIWSSTTARNTHPLVNAVFGSNMTLQAGAGATTAAPARQEAASASAVVAASASNGRSGRFGTKRRPTKAEAADEESASEAAINAPKPQRVHFEFVWTREHTRVDDFRRLNAAVNDDSHATVKDLSQVFAQFPSIAQPQNTVLIDDTPSKAKMQADNYLWLDTCSNLRIKDETSLYRLRDFVMRELVPAEDVRELLPRRIRM	soluble
MGSDKIHHHHHHMQILLANPRGFCAGVDRAISIVERALELFGTPIYVRHEVVHNRYVVNGLRERGAIFIEQIEDVPDGAILIFSAHGVSQAVRNEAKNRDLTVFDATCPLVTKVHMEVARASKKGVEAILIGHAGHPEVEGTMGQYSNADGGMYLVESPDDVWQLQVKDEKNLCFMTQTTLSVDDTYAVIDALRERFPRIIGPRKDDICYATTNRQEAVRHLSDKADVVFVVGSKNSSNSNRLAELAQRAGKAAYLIDSADDIQESWLTGASYVGVTAGASAPDILVQQVIQRLKELGGKVAVEMQGREENIVFEVPKELRVEVKQID	not soluble
MRMIFVNLPVKNIEVSKSFFTALGFSFNPEYSDDRTLCMIVEENIFVMLLQEDRFRDFINGDIADAKQSTEVLTCLSAGSREEIDEMIATALASGGSSWKPVQDHGFMYAGSFQDPDGHVWELVHMTGQG	soluble
MRRRRVLLLLLSTTTFLRVSTAQQDEPKASVVEVQTKLGTVRGTESDHGNKRVRSFLGVPFAEPPINEHRFKKPTPARPWNGTISANTLSPACFQGRDSYDPTFWGSEMWNANTPVSEDCLYVNIWAPADAYNLTVLVWLFGGGFWYGSPSLLLYDGKELATRGNVIVVNINYRVGPFGYLFLDHEDVPGNMGMLDQQLALYWIRDHIFSFGGNPARISLVGESAGAASIVAHLIAPASKGLFQNGILQSGSLDNKWSMDSPKRAKQKSTALADLVGCNQTKITDQTACLRNTPAQLLIDNIWNVGLNFLEFPFAIVSKDQNFFKHLDGFIALREGTYSTDVNLMFGINHDEGNFWNIYNLAKFFDKQSVKPGLDRDEFHECVDTAFAVQPELVRTAAKYVYSDPKCTDPKKKTDFYTEQVNQMVGDYFFTCDSIWFAHNYPKMAGNQSNVFVYYFDQPSSANPWPKWTGVMHGYEIEYVFGVPLHNTTAGYTKEEMDVSEKVIDFWTTFANTGVPSLRKRAVGTTQKIKWDRYDGTDHTTWMNIKTGSFRMIQEIKKVECDLWRNAKDMEYSAYKEELATTSSSTLTQYTIYLILLSAFQLVFNFF	not soluble
MPERDALLTDLVGDRAAEWDTSGELPRDLLVRLGADGLLCAEVAAEHGGLGLGSRENGEFTAHVGSLCSSLRSVMTSQGMAAWTVQRLGDAGQRATFLKELTSGKLAAVGFSERQAGSDLSAMRTRVRLDGDTAVVDGHKVWTTAAAYADHLVVFGLQEDGSGAVVVVPADTPGVRVERVPKPSGCRAAGHADLHLDQVRVPAGAVLAGSGASLPMLVAASLAYGRKSVAWGCVGILRACRTAAVAHARTREQFGRPLGDHQLVAGHIADLWTAEQIAARVCEYASDHWDEGSPEMVPATILAKHVAAERAAAGAATAAQVLASAGAREGHVVERAYRDAKLMEIIEGSSEMCRVMLAQHALALPA	soluble

Reference: the DeepSol protein solubility set
